US20080072349A1 (PIONEER HI BRED INTERNATIONAL, published 2008)

Experiments:
Assay in all cases: cell-based or functional assay
[1] = molecular target: T1, purified deactivated Arabidopsis Rubisco (Ribulose-1,5-bisphosphate carboxylase/oxygenase) (Arabidopsis, UniProt O03042 3-479; P10795 55-180)
[2] = molecular target: T1, purified deactivated Arabidopsis …; remark: listed apart in the source
[3] = molecular target: T1, purified deactivated Arabidopsis …; remark: listed apart in the source

Row | Activation of deactivated Rubisco assay, T.S 45° C./25° C. [1] [%] | Activation of deactivated Rubisco assay, T.S 45 min at 40° C./15 min at 25° C. [1] [%] | Rubisco activation under catalytic conditions assay, T.S 40° C./25° C. [1] [%] | Thermostability (%) [2] [%] | activation state of Rubisco at 40° C. relative to reactions at 25° C. [3] [%] | Binder
1 | 89 | 75 | 78 | 89 | – | Rubisco Activase derived polypeptide 301H3 (enzyme) MVKEDKQTDGDRWRGLAYDTSDDQQDITRGKGMVDSVFQAPMGTGTHHAVLSSYEYVSQGLRQYNLDNMMDGFYIAPAFMDKLVVHITKNFLTLPNIKVPLILGIWGGKGQGKSFQCELVMAKMGINPIMMSAGELESGNAGEPAKLIRQRYREAADLIKKGKMCCLFINDLDAGAGRMGGTTQYTVNNQMVNATLMNIADNPTNVQLPGMYNKEENARVPIICTGNDFSTLYAPLIRDGRMEKFYWAPTREDRIGICKGIFRTDKIKDEDIVRLVDQFPGQSIDFFGALRARVYDDEVRKFVESLGVENIGKRLVNSREGPPVFEQPEMTYEKLMEYGNMLVMEQENVKRVQLAETYLSQAALGDANADAIGRGTFYGKTEEKEPSKLE
2 | 86 | 85 | 93 | 90 | – | Rubisco Activase derived polypeptide 382D8 (enzyme) MVKEDKQTDGDRWRGLAYDTSDDQQDITRGKGMVDSVFQAPMGTGTHHAVLSSYEYVSQGLRQYNLDNMMDGFYIAPAFMDKLVVHITKNFLTLPNIKVPLILGIWGGKGQGKSFQCELVMAKMGINPIMVSAGELESGNAGEPAKLIRQRYREAADLIKKGKMCCLFINDLDAGAGRMGGTTQYTVNNQMVNATLMNIADNPTNVQLPGMYNKEENARVPIICTGNDFSTLYAPLIRDGRMEKFYWAPTREDRIGICKGIFRTDKIKDEDIVTLVDQFPGQSIDFFGALRARVYDDEVRKFVESLGVENIGKRLVNSREGPPVFEQPEMTYEKLMEYGNMLVMEQENVKRVQLAETYLSQAALGDANADAIGRGTFYGKTEEKEPSKLE
3 | 50 | 32 | 67 | 66 | 70 | wild type Rubisco Activase (Arabidopsis, short form RCA1) (enzyme) MVKEDKQTDGDRWRGLAYDTSDDQQDITRGKGMVDSVFQAPMGTGTHHAVLSSYEYVSQGLRQYNLDNMMDGFYIAPAFMDKLVVHITKNFLTLPNIKVPLILGIWGGKGQGKSFQCELVMAKMGINPIMMSAGELESGNAGEPAKLIRQRYREAADLIKKGKMCCLFINDLDAGAGRMGGTTQYTVNNQMVNATLMNIADNPTNVQLPGMYNKEENARVPIICTGNDFSTLYAPLIRDGRMEKFYWAPTREDRIGVCKGIFRTDKIKDEDIVTLVDQFPGQSIDFFGALRARVYDDEVRKFVESLGVEKIGKRLVNSREGPPVFEQPEMTYEKLMEYGNMLVMEQENVKRVQLAETYLSQAALGDANADAIGRGTFYGKTEEKEPSKLE
4 | 92 | 88 | 97 | 103 | – | Rubisco Activase derived polypeptide 383A12 (enzyme) MVKEDKQTDGDRWRGLAYDTSDDQQDITRGKGMVDSVFQAPMGTGTHHAVLSSYEYVSQGLRQYNLDNMMDGFYIAPAFMDKLVVHITKNFLTLPNIKVPLILGIWGGKGQGKSFQCELVMAKMGINPIMMSAGELESGNAGEPAKLIRQRYREAADLIKKGKMCCLLINDLDAGAGRMGGTTQYTVNNQMVNATLMNIADNPTNVQLPGMYNKEENARVPIICTGNDFSTLYAPLIRDGRMEKFYWAPTREDRIGICKGIFRTDKIKDEDIVRLVDQFPGQSIDFFGALRARVYDDEVRKFVESLGVENIGKRLVNSREGPPVFEQPEMTYEKLMEYGNMLVMEQENVKRVQLAETYLSQAALGDANADAIGRGTFYGKTEEKEPSKLE

Continued, binder first:

Row | Binder | Activation of deactivated Rubisco assay, T.S 45° C./25° C. [1] [%] | Activation of deactivated Rubisco assay, T.S 45 min at 40° C./15 min at 25° C. [1] [%] | Rubisco activation under catalytic conditions assay, T.S 40° C./25° C. [1] [%] | Thermostability (%) [2] [%] | activation state of Rubisco at 40° C. relative to reactions at 25° C. [3] [%]
5 | Rubisco Activase derived polypeptide 183H12 (enzyme) MVKEDKQTDGDRWRGLAYDTSDDQQDITRGKGMVDSVFQAPMGTGTHHAVLSSYEYVSQGLRQYNLDNMMDGFYIAPAFMDKLVVHITKNFLTLPNIKVPLILGIWGGKGQGKSFQCELVMAKMGINPIMMSAGELESGNAGEPAKLIRQRYREAADLIKKGKMCCLFINDLDAGAGRMGGTTQYTVNNQMVNATLMNIADNPTNVQLPGMYNKEENARVPIICTGNDFSTLYAPLIRDGRMEKFYWAPTREDRIGVCKGIFRTDKIKDEDIVRLVDQFPGQSIDFFGALRARVYDDEVRKFVESLGVEKIGKRLVNSREGPPVFEQPEMTYEKLMEYGNMLVMEQENVKRVQLAETYLSQAALGDANADAIGRGTFYGKTEEKEPSKLE | 52 | 54 | 77 | 82 | –
6 | Rubisco Activase derived polypeptide 184B2 (enzyme) MVKEDKQTDGDRWRGLAYDTSDDQQDITRGKGMVDSVFQAPMGTGTHHAVLSSYEYVSQGLRQYNLDNMMDGFYIAPAFMDKLVVHITKNFLTLPNIKVPLILGIWGGKGQGKSFQCELVMAKMGINPIMMSAGELESGNAGEPAKLIRQRYREAADLIKKGKMCCLFINDLDAGAGRMGGTTQYTVNNQMVNATLMNIADNPTNVQLPGMYNKEENARVPIICTGNDFSTLYAPLIRDGRMEKFYWAPTREDRIGVCKGIFRTDKIKDEDIVTLVDQFPGQSIDFFGALRARVYDDEVRKFVESLGVENIGKRLVNSREGPPVFEQPEMTYEKLMEYGNMLVMEQENVKRVQLAETYLSQAALGDANADAIGRGTFYGKTEEKEPSKLE | – | – | – | 84 | –
7 | Rubisco Activase derived polypeptide 214A4 (enzyme) MVKEDKQTDGDRWRGLAYDTSDDQQDITRGKGMVDSVFQAPTGTGTHHAVLSSYEYVSQGLRQYNLDNMMDGFYIAPAFMDKLVVHITKNFLTLPNIKVPLILGIWGGKGQGKSFQCELVMAKMGINPIMMSAGELESGNAGEPAKLIRQRYREAADLIKKGKMCCLFINDLDAGAGRMGGTTQYTVNNQMVNATLMNIADNPTNVQLPGMYNKEENARVPIICTGNDFSTLYAPLIRDGRMEKFYWAPTREDRIGVCKGIFRTDKIKDEDIVRLVDQFPGQSIDFFGALRARVYDDEVRKFVESLGVEKIGKRLVNSREGPPVFEQPEMTYEKLMEYGNMLVMEQENVKRVQLAETYLSQAALGDANADAIGRGTFYGKTEEKEPSKLE | 58 | 65 | 74 | 92 | –
8 | Rubisco Activase derived polypeptide 182B11 (enzyme) MVKEDKQTDGDRWRGLAYDTSDDQQDITRGKGMVDSVFQAPMGTGTHHAVLSSYEYVSQGLRQYNLDNMMDGFYIAPAFMDKLVVHITKNFLTLPNIKVPLILGIWGGKGQGKSFQCELVMAKMGINPIMISAGELESGNAGEPAKLIRQRYREAADLIKKGKMCCLFINDLDAGAGRMGGTTQYTVNNQMVNATLMNIADNPTNVQLPGMYNKEENARVPIICTGNDFSTLYAPLIRDGRMEKFYWAPTREDRIGVCKGIFRTDKIKDEDIVTLVDQFPGQSIDFFGALRARVYDDEVRKFVESLGVEKIGKRLVNSREGPPVFEQPEMTYEKLMEYGNMLVMEQENVKRVQLAETYLSQAALGDANADAIGRGTFYGKTEEKEPSKLE | – | – | – | 84 | –
9 | Rubisco Activase derived polypeptide 301C7 (enzyme) MVKEDKQTDGDRWRGLAYDTSDDQQDITRGKGMVDSVFQAPMGTGTHHAVLSSYEYVSQGLRQYNLDNMMDGFYIAPAFMDKLVVHITKNFLTLPNIKVPLILGIWGGKGQGKSFQCELVMAKMGINPIMMSAGELESGNAGEPAKLIRQRYREAADLIKKGKMCCLLINDLDAGAGRMGGTTQYTVNNQMVNATLMNIADNPTNVQLPGMYNKEENARVPIICTGNDFSTLYAPLIRDGRMEKFYWAPTREDRIGICKGIFRTDKIKDEDIVTLVDQFPGQSIDFFGALRARVYDDEVRKFVESLGVENIGKRLVNSREGPPVFEQPEMTYEKLMEYGNMLVMEQENVKRVQLAETYLSQAALGDANADAIGRGTFYGKTEEKEPSKLE | 84 | 92 | 83 | 98 | –
10 | Rubisco Activase derived polypeptide 079H6 (enzyme) MVKEDKQTDGDRWRGLAYDTSDDQQDITRGKGMVDSVFQAPTGTGTHHAVLSSYEYVSQGLRQYNLDNMMDGFYIAPAFMDKLVVHITKNFLTLPNIKVPLILGIWGGKGQGKSFQCELVMAKMGINPIMISAGELESGNAGEPAKLIRQRYREAADLIKKGKMCCLFINDLDAGAGRMGGTTQYTVNNQMVNATLMNIADNPTNVQLPGMYNKEENARVPIICTGNDFSTLYAPLIRDGRMEKFYWAPTREDRIGVCKGIFRTDKIKDEDIVTLVDQFPGQSIDFFGALRAKVYDDEVRKFVESLGVEKIGKRLVNSREGPPVFEQPEMTYEKLMEYGNMLVMEQENVKRVQLAETYLSQAALGDANADAIGRGTFYGKTEEKEPSKLE | 63 | 66 | 82 | 88 | –
11 | Rubisco Activase derived polypeptide 126H4 (enzyme) MVKEDKQTDGDRWRGLAYDTSDDQQDITRGKGMVDSVFQAPMGTGTHHAVLSSYEYVSQGLRQYNLDNMMDGFYIAPAFMDKLVVHITKNFLTLPNIKVPLILGIWGGKGQGKSFQCELVMAKMGINPIRMSAGELESGNAGEPAKLIRQRYREAADLIKKGKMCCLFINDLDAGAGRMGGTTQYTVNNQMVNATLMNIADNPTNVQLPGMYNKEENARVPIICTGNDFSTLYAPLIRDGRMEKFYWAPTREDRIGVCKGIFRTDKIKDEDIVTLVDQFPGQSIDFFGALRARVYDDEVRKFVESLGVEKIGKRLVNSREGPPVFEQPEMTYEKLMEYGNMLVMEQENVKRVQLAETYLSQAALGDANADAIGRGTFYGKTEEKEPSKLE | – | – | – | 97 | –
